Measurements reported in paper doi:10.1101/2023.03.06.531442 (bioRxiv, 2023).

B1: mouse α-tubulin isotype α1C (natural protein)
chain: MRECISIHVGQAGVQIGNACWELYCLEHGIQPDGQMPSDKTIGGGDDSFNTFFSETGAGKHVPRAVFVDLEPTVIDEVRTGTYRQLFHPEQLITGKEDAANNYARGHYTIGKEIIDLVLDRIRKLADQCTGLQGFLVFHSFGGGTGSGFTSLLMERLSVDYGKKSKLEFSIYPAPQVSTAVVEPYNSILTTHTTLEHSDCAFMVDNEAIYDICRRNLDIERPTYTNLNRLISQIVSSITASLRFDGALNVDLTEFQTNLVPYPRIHFPLATYAPVISAEKAYHEQLTVAEITNACFEPANQMVKCDPRHGKYMACCLLYRGDVVPKDVNAAIATIKTKRTIQFVDWCPTGFKVGINYQPPTVVPGGDLAKVQRAVCMLSNTTAIAEAWARLDHKFDLMYAKRAFVHWYVGEGMEEGEFSEAREDMAALEKDYEEVGADSAEGDDEGEEY
B2: mouse α-tubulin isotype α4A (natural protein)
chain: MRECISVHVGQAGVQMGNACWELYCLEHGIQPDGQMPSDKTIGGGDDSFTTFFCETGAGKHVPRAVFVDLEPTVIDEIRNGPYRQLFHPEQLITGKEDAANNYARGHYTIGKEIIDPVLDRIRKLSDQCTGLQGFLVFHSFGGGTGSGFTSLLMERLSVDYGKKSKLEFSIYPAPQVSTAVVEPYNSILTTHTTLEHSDCAFMVDNEAIYDICRRNLDIERPTYTNLNRLISQIVSSITASLRFDGALNVDLTEFQTNLVPYPRIHFPLATYAPVISAEKAYHEQLSVAEITNACFEPANQMVKCDPRHGKYMACCLLYRGDVVPKDVNAAIAAIKTKRSIQFVDWCPTGFKVGINYQPPTVVPGGDLAKVQRAVCMLSNTTAIAEAWARLDHKFDLMYAKRAFVHWYVGEGMEEGEFSEAREDMAALEKDYEEVGIDSYEDEDEGEE
B3: recombinant mouse α4A/β2A tubulin heterodimer (complex)
chain 1: B2 chain
chain 2: […]

Assays:
cryo-EM structure = target: the molecule itself; assay: cryo-EM structure
[1] = target: the molecule itself; assay: TIRF microscopy of assembled microtubules

Protein	binding result (cryo-EM structure)	binding result [1]
B1	binds	
B2	binds	
B3		binds
